Measured values: the DeepSol protein solubility set

Test: soluble on expression in E. coli; label from the status in PepcDB or PDB records

Sequence	soluble on expression in E. coli
MGSDKIHHHHHHMGDLTADVLVIGGGTAGFGAAVAAGRLGLDVVLLEAGTKVGGVMAFCPGMPWGAAYPQDESIGGLMQELTDRLMGMDPPMAEKRPCTLENFGPEIQYDHDAATTMMFEMLEEAGVRVFLGAVAFAPVMEGNRIAAVEFFDRRCPQRIAAKIVIDCSGDGDISAKAGVPFTLGDGQGNMMAVTLSFFMEGADWDRVFAENDPYFRRYAAKGIAEGRLHPHLAQLYLMKGFHPGTVFCNSVAIRGVDGTDPADVTRATQEGRRRCLQLAQFLRADVPGFEAAHMSQLGPTVGVRETRKLEGMYKVTGADLAAGTKFADGIVACDNPIDDVMRTSDQMTHDAMVERGGYYTIPFRSLLPKAVANLMFAGRILSADLVAFASVRGMPQCMAMGQATGTAAHLAIRDGAPVQQVDRAELVKLLSEQGVSRLLS	not soluble
MGSDKIHHHHHHMGEIMKFYDREKELNYLKTYCQLEPNSILFVYGPKSSGKSTVMRRVIKELENSNIVFFYYNLRKYATPTRDEFLRVFFEKSDKKYLLNKLELNLGVCKFGIEENFDFNNLCLNDVFAKINESINAVVEEGKKPVLIIDELQKLKNIYFNGGKSLLNELFNLFVSLTKMEHLCHVICLTSDTLFIDEIYRNSTLKNASEYYLIDWLRKGTIRNILKEEGFSEEEINYALDYLSLPYEISQLINNKKLGLSVEQTIKQWINVEKDGLKYLIDTTDLDEEGLYNVLSKFKDKIKISYDKEVKKEEMKYLKFLIENEILFYDVINGIIKPTSIIEWHAIKEIINAMQ	not soluble
MGSDKIHHHHHHMGELTIAKSAGFCFGVTRAVNMVYEAIEKENVPIYTYGPIIHNDEVVKDMEKNGVTVINDLDELSSHEKGVMIIRSHGISKAEYDRIKNCGFEVLNATCPFVSKIHRYVEDYSSKGYDIIIVGSPKHPEVCGIKGWADEKCHVTIINSPEDAENYMKNSTKKLCIVSQTTFNYNKFQDIVEIIAKKGYDITVLNTICNATEVRQTEARKVAQCSDVMIVIGDRHSSNTQKLFEICKNECKNTYYIQTSDEMDYTQIRSNNNVGITAGASTPNNIIEEVSKNVRNEL	not soluble
MGSDKIHHHHHHMGESASGSDRSQKARGAFRVRSLQIRYKTSRPEIRQSWRSMLQRERPCKGGREDFEKGRRGNFSSPLRSVSLQGDCRTQLRSGKEALQFRETRRHTEQGGITMKVVVGIPSYNNAETISHVARTAAQGIVDFFDGDGMIVNSDGGSADGTRERFMETDTFGLPKESFVYEGLPGKGSAMRAIMEFALKQDAEAVVFLDADLRSVKPWWVERLAGPVLKGEADYVTPFYLRHRFDGTITNNVCFPMTAVLYGKKVRQPIGGDFGVGRKLLEIYLGKPKEIWNTDVARFGIDIWMTTTAINESGRVVQAALGTKVHDVKDPGKHLKGMFLQVVGTLFELVITYENVWKEIWKIEDVPIYGETPQEEVPSMSIDIGNLKKLARETLEEVEYIDRGILSEVKESGTLSLSSWVDTLYRSAVQYRKTRDKKVVENLLPFYFARTARFAEEVKSLSDEEAERYVYEQLDVFLEKKHSLREEWKVEDKR	not soluble
MGSDKIHHHHHHMGFLAREKVHLKKVVIGGSQDWLKHSYKLFKAIMNRIFGYGNKKSHDQLLQESNQSMNQAQQSLSNRISQLDTQIAQLNFQLQNIQKNLQRSNNKQPSLRKQALKILNKRKQLENMKDSLDSQSWSMTQAQLTNDNLQNTMITINALKQTNNAMKAQYGKINIDKLQDMQDEMLDLIEQGDELQEVLAMNNNSGELDDISDAELDAELDALAQEDFTLPTSENSLGNDMPSYLLGANAPPAFIDEEPNLDTEDKNKALESAQ	not soluble
MGSDKIHHHHHHMGIGRGYAVWSPRSIYLTDFVYANFLEELIMQTLIIYSTIDGQTLAICQKMKTIAEQAGEQVALVTLEQADALSLADFDKVLIGASIRYGKHRPELYQFVNRHHAVLDTKINGFFTVNVVARKPLKNTPETNPYMQKFLQLSLWQPQLLEVFAGKIDYPKYGFFDRTMIRFIMWMTKGPTDITGTFEFTDWEKVDAFGNRFSQH	not soluble
MGSDKIHHHHHHMGIRSHLAIAAGKTSQWVLQTFFKGGSSYPGKLALKIDPKILDTLAKDYEIVVVTGTNGKTLTTALTVNILRQEFDEVLTNPTGANMEQGIVSTFLNAKAKKGQKKFAVLEIDEASLSRVTKYIQPKLFVFTNIFRDQMDRYGEIYTTYRLIMEGAAAAPEATILCNGDSPIFNSKETVNPRKYYGFNHLPPKEQLAHYNTDGVLCPKCNHILHYKMITYANLGDYYCPNCGFKRPELDVQLTEMVRMDNTSADFVIDGEEYGIAVGGMYNVYNALAATAVAEYYQVAPDKIRAGLAYDEKVFGRQETIKVGDKECTLVLVKNPVGLNQVIDMMGLAPYSFSLVSLLNANYADGIDVSWIWDGNHEAFADMDIPKVIAGGDRHEDMALRLKVAGIPEEKLLEIADLEQVISEIKTLPTDHVYILATYTAVLQLRKSLTAQGYIQGGMNGV	not soluble
MGSDKIHHHHHHMGKIISKFVCHECGYETPKWLGKCPGCSAWNSLLEESISNKPLRRTAERVAAIPLNQLSAEDSPRFSSGLSEFDRVLGGGIVPGSLILLGGDPGIGKSTLLLQVAGLIAAAGKRILYLSGEESLQQIRLRASRLGINNDTIFLLNEQDIDLLHEYINDLDPDLIIIDSIQTVYSSKLSSIPGSVSQLRESTAAVMQIAKKMDKAVFLVGHVTKDGSLAGPKVLEHIVDVVVYFEGEKNFSFRLLRAAKNRFGATDEIALLEMSGQGLVEVPDPSYVFLSPGRDISSGTAIVASMEGSRPLLIEIQALVSSLGAGYPRRMVSGIDQNRLSLIIAVLEKRRGYTLSACDVYLKVSGGVFLKDPSVDLGIAAAVLSSYLEKPLAMDTVFIGEISLSGQIRPVSFLDLRLREIDRMGYKRVIVPTSPGRLAKSSHNMEILEVKSLDHFIDIVLEG	not soluble
MGSDKIHHHHHHMGLNLSKGDMYKFVNYTWNPIKGKCLHDCSYCYMKQINPNANPPRLAEYELNTDLGCGRSIFIGSSTDMFAEDIPSEWIARVLDYCYQNRNMLLPNAYLLQSKNPKRFLEFINHPIMERVVFCTTIETNRFYPEIMNKAPRIDERVEAMEEIARLGRPTMVTAEPLMQFDHEEMVSFIRRCSPKLVNIGRNSCRRIVLPEPTQEEVQQLIAELKSLKSFTKVNVKDNALEWCK	not soluble
MGSDKIHHHHHHMGNFLYGIDFGTSNSVLSIFDEDKNEIIETLSVPSILYFPDAYDPALPLQYYVGEDAIRYYISDGMKGRFMKSIKRVLPRTNFVETRIHTKSFNAAGLITLILKELKTKADAIIGMDCKKAIIGRPVYFDDDNTVNDAVAQKRLLQAAQQAGLSDIRFQYEPIGAAFAYERTISKKEHVLVADLGGGTTDFTFIELDPHKNNRKDRRSDIIATGGIYIGGDSFDSAFMWDKGTPYFGRGVTYESMPGKMVDVPPSFFSNICSWEKMNFFNGVKVQNDLRQYYNYSKQNDKLKNLITLTENNLGYSIFQSIEKTKVDLSIQSSSSFSYHKADIHIDEPIDLTAYNRIIQRDVTKINNYLESFLSKHAIVPESIDSLFLTGGTSMVQAIQALFKEKFPHIAITSGDNFISVSKGLAYSGYLFD	not soluble
MGSDKIHHHHHHMGSSGMGVDANGKPIKRQPTTNNNNKKAGNNSNNQKKGNNQNNKNNKNQNGGNRNQNRQHHQPPMMQMVPPFGPMGPGGPGGPGFMGPPNGNMNFFNGQNRRNGSGKDTMDHRLTMWDKELLEIT	not soluble
MGSDKIHHHHHHMGTCLLSGLSEPSGGISEHLRGQTDQLGFRQFPHGLSGITQPCRGHRAPLAGLHPRYLRFSQSTPAHFVILTTESMTPTPEIPEPHYIGHRQRLKKKFFKCGLQALHDYEAVELLLSYAIPRKDIKSLSKDLLERFGSLKGIMDAELEELTAVRGISAHAAGLVRMVKEMSALYLQEKAREKPQISCTGELLDFCKTALGGLKDENFCVLYLDTQNRIIAFETIQKGIVNQAVVYPRQVIERALSHKSSALILVHNHPSGFVKPSDADIRLTRTITDTAKLLDIMVHDHLIIGENRFFSFREEGIMPL	not soluble
MGSDKIHHHHHHMGVQSAVRVHRAISEIGQDAWDACAASTGDPFVSYDFLSILEESGCVAARTGWAPQHLTVLDEADQVAGVMPLYLKSHSQGEYVFDHSWADAYERAGGRYYPKLQCSSPFSPVTGSRLIVRPDIDAAEGRSALMGGALTLCERMGASSLHVTFPVEDQWRWMGERGMLLRQDQQYHWENRGYETFDDFLGALSANRRKTIRRERRDAQEGLEIVALTGADLTEDHWDAFFAFYMDTGGRKWGRPYLNRPFFSLLGQRMADKVLLILARRPGGPFIAGALNLLGRDCLYGRHWGCVEDAPFLHFELCYYQAIEHAIRLGLPRVEAGAQGQHKIARGYLPSAVYSAHWIADPMLREPVARYLERERAAVESDMEMLTEEYSPFREER	not soluble
MGSDKIHHHHHHMHGKLVEVADGVYAYIQGRGEWFVNNAGLIVGEEFSVVVDSVCNEQRAKEMISQFREVTAKDFRILINTHGHPDHVWTNHLFDAVAVAHEMGRQETLMAFVEIYQSLFPDLDFSGAKITPQNITFESRMKLYNDAEMQIIHPGVAHTRGDCYIYIPQKKVVFCGDLLFAKPCTPLAVGGSVRGSVNALRELLNLDAKIYVPGHGGLAGEEHLVEAIEYFEFVWEEAKKRHERGMGWYEAAMDIDLGEYAKWSEAERIVGNVARAYAEIEGRELEFAELVEVARKMLEYGGGRK	not soluble
MGSDKIHHHHHHMHGREAEDGVRSNPTGRQLRFGAELRKLREQAGLSATDAGQLLGIKQTQVSNMEAGRVGVSADRVRTLACHYECSDKALVEAIAAMTGDRTRGWWEEYREILPVGLLDLAELEHHATRLRTAVTVHIPGLFQTTEYAREIFRQAVPELPQPDVEHRVSFRIKRQAILFRDPPTPHQIIVHEAALRMRFGGSDVTRDQLKYLTAMNEREHISVQVIPFDTGVLPGSGQSIYYAEGPVPQLDTVNLDQSHGPVFLDAGAQLRKYRGLLDRMESAALSPEDSQKFIHTILKAL	not soluble
MGSDKIHHHHHHMHHESPIRRRKTRQIHVGKVAIGGDAPISVQSMTNTETRDIAATVAQIRRLEAVGADIVRISVPSMDAAEAFKTIRAQVETPLVADIHFDHRIALQVMEDGVDGLRINPGNIGSLDKTRLVVEMAKDKGIPIRIGVNAGSLEKDIQEKYGEPTPEALVESALRHVSILDELNFHDVKISVKASDIFLAVSAYRLLSEKVDYPLHLGITEAGGLRSGTVKSAIGLGLLLRDGIGDTIRVSLAADPVEEIRVGFDILKSLHLRQKGINLIACPSCSRQEFDVITTINALEARLEDILEPMDVSVIGCVVNGIGEAKEADIGLAGGDKRSILYYRGKQVDRVENNDIVDVLEKRIRAEIAERQATRHEG	not soluble
MGSDKIHHHHHHMHHNTWKGIILQKQGLLKPQSVQQICQNLNGLQAQFQPYVHIGFRNRMTNEAFQNQDWQASLTRQWSLRRTVHAYLKSEIPLYIHEGRMASVDYLETVSWDGALPQVKKKFYQVILEALETGPMTREELKILCRAENIGVEEEKQVFNAWGGLLRYMVERGEIYQEYGVKRFHRLRDFQPLPKKEAELEIARRYFTGFGPVSLADARYYFKENKSTVLKWMEQLDLKTVEVAGEERFYLGELEEAELPDCLFVAGFDQLLLGYEKKANPFFNPKYIRNIYTLTGIVKPVVFYKGRFVATWKRDKGTILLDIFEDITQQEEKELEHYRQMFEKIL	not soluble
MGSDKIHHHHHHMHKHADFFSYLSDHFQHTYWVPGNHEWYNSDMADRSGMLHEKIKDNVSLVNNAAVEQDGVQLIFSTLWSQISPAFAFQISQGMSDFHVIKYKGKPFSVEQFNRQHEESVSFIQKALQQKYAATTVVVSHHIPTFQHYPQQYKGSVLSEAFATELYDLIEAASPDYWIYGHHHSNVPDFTIGNTQLLTNQLGYVKCGEHAGFDRGKCLFRRGGH	not soluble
